The results in this text go back to patent US20220213153A1 (University of Washington, published 2022).

In one assay the target is T1, D2_Wm-02B.
T1 construct: De novo designed component of the two-component D2 dihedral ring D2_Wm-02; also called component B of D2_Wm-02; D2-2
T1 chain: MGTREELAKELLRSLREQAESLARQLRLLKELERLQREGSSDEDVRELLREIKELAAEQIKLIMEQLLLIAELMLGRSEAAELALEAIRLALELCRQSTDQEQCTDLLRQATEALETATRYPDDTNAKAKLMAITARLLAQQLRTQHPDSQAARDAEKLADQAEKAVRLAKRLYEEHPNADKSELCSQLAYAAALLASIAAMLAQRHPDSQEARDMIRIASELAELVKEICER
The assay is described as follows: Ni-NTA pulldown of bicistronically co-expressed components (one His-tagged), SDS-PAGE, SEC, SAXS.

In the next assay the target is T2, D2_Wm-01B.
T2 construct: De novo designed component of the two-component D2 dihedral ring D2_Wm-01; untagged (only one component carries the 6xHis tag); also called component B of D2_Wm-01; D2-1
T2 chain: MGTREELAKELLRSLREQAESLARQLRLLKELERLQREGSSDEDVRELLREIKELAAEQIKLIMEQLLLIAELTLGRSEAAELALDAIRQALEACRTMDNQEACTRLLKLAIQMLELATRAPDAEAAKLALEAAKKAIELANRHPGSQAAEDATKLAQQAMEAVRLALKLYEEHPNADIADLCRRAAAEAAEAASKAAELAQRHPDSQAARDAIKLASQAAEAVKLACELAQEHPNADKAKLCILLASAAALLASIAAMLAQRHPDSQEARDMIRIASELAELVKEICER
The assay is described as above.

A further assay has as its target T3, D2_Wm-01_truncB.
T3 construct: D2_Wm-01B with one heptad deleted from the homodimer helices; also called component B of D2_Wm-01_trunc; D2-1_trunc
T3 chain: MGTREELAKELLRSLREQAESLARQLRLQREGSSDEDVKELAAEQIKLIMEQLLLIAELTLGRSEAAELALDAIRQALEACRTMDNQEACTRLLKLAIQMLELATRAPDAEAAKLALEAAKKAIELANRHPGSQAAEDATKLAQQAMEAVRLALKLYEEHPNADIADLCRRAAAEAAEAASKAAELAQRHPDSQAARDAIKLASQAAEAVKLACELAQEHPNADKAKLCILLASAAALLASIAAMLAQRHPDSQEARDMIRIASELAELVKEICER
The assay is described as follows: SEC and negative-stain EM of the two-component ring.

B1: D2_Wm-02A (designed binder)
chain: MGTREEIIRELARSLAEQAELTARLERSLREQERLQREGSSDEDVRELIREQKELVREILKLIAEQILLIAELLLASTRSEAAELALRAIRNAIEACKNADNEEMCRQLMRMAQNALELATQAPDAEAAKAALRAIDLAVELASRHPGSQAADDALKLAQQAAEAVKLALDLYREHPNADIADLCRKAAKEAAEAASKAAELAQRHPDSQAARDAIKLASQAAEAVKLACELAQEHPNAEIAKMCILAASAAALMASIAAILAQRHPDSQIARDLIRLASELAEMVKRMCERGGSWGLEHHHHHH
notes: De novo designed component of the two-component D2 dihedral ring D2_Wm-02; also called component A of D2_Wm-02; D2-2
In the case of B1, in the assay with D2_Wm-02B, the binding result is “binds”.

B2: D2_Wm-01A (designed binder)
chain: MGTREESLKEQLRSLREQAELAARLLRLLKELERLQREGSSDEDVRELLREIKELVAEIIKLIMEQLLLIAEQLLGRSEAAELALRAIRLALELCRQSTDLEECLRLLKTAIKALENALRHPDSTTAKARLMAITARLLAQQLRTQHPDSQAARDAEKLADQAERAVRLATRLYEEHPNAEISEMCSQAAYAAALMASIAAILAQRHPDSQIARDLIRLASELAEMVKRMCERGGSWGLEHHHHHH
notes: De novo designed component of the two-component D2 dihedral ring D2_Wm-01 (8 chains in all, 2 chains as the asymmetric unit); also called component A of D2_Wm-01; D2-1
Turning to B2, the binding result with D2_Wm-01B was “binds”.

B3: D2_Wm-01_truncA (designed binder)
chain: MGTREESLKEQLRSLREQAELAARLLRLQREGSSDEDVKELVAEIIKLIMEQLLLIAEQLLGRSEAAELALRAIRLALELCRQSTDLEECLRLLKTAIKALENALRHPDSTTAKARLMAITARLLAQQLRTQHPDSQAARDAEKLADQAERAVRLATRLYEEHPNAEISEMCSQAAYAAALMASIAAILAQRHPDSQIARDLIRLASELAEMVKRMCERGGSWGLEHHHHHH
notes: D2_Wm-01A with one heptad deleted from the homodimer helices; also called component A of D2_Wm-01_trunc; D2-1_trunc
For the molecule B3, the binding result with D2_Wm-01_truncB was “binds”.
